The target in experiment [1] is T1, ligand-binding domain of human FGFR1c (D142 to R365) (human, UniProt P11362 142-365).
T1 construct: range 142-365
T1 sequence (looked up): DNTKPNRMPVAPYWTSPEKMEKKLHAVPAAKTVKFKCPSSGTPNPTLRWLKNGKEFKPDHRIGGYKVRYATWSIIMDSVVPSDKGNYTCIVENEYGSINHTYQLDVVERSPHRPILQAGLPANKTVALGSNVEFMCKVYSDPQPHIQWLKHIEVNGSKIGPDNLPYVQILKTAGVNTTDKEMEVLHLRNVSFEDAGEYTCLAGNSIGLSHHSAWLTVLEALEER
Nature of the experiment: SPR; FGF23 immobilized, increasing concentrations of FGFR1c ligand-binding domain; KD only in the figure. The text has this:
(§1) FIGS. 10A-10D show overlays of SPR sensorgrams illustrating binding of FGFR1c to FGF2 (FIG. 10A), FGF19 (FIG. 10B), FGF21 (FIG. 10C), and FGF23 (FIG. 10D), and fitted saturation binding curves. Increasing concentrations of FGFR1c ligand-binding domain were passed over a biosensor chip containing immobilized FGF2, FGF19, FGF21, or FGF23. […] Increasing concentrations of αKlotho-FGFR1c complex were passed over a biosensor chip containing immobilized FGF23. […] FGF2^3C-tail was immobilized on a biosensor chip and increasing concentrations of FGFR1c ligand-binding domain were passed over the chip. Dissociation constants (K_Ds) given in FIGS. 10A-10E were derived from the saturation binding curves.
(§2) Example 2—Analysis of FGF-Heparin and FGF-FGFR-α/Klotho Interactions by Surface Plasmon Resonance Spectroscopy Surface plasmon resonance (SPR) experiments were performed on a Biacore 2000 instrument (Biacore AB), and the interactions were studied at 25° C. in HBS-EP buffer (10 mM HEPES-NaOH, pH 7.4, 150 mM NaCl, 3 mM EDTA, 0.005% (v/v) polysorbate 20). To study endocrine FGF-heparin interactions, a heparin chip was prepared by immobilizing biotinylated heparin (Sigma-Aldrich) on flow channels of a research-grade streptavidin chip (Biacore AB). The coupling density was ~5 fmol mm^-2 of flow channel. […]
For orientation: In SPR one partner is held on a chip, and binding of the other changes the refractive index at the surface.

For experiment [2], the target named is T1, ligand-binding domain of human FGFR1c …. Kind of experiment: SPR; immobilized FGF21, FGFR1c ligand-binding domain in solution.
Description: as §1, §2

For experiment [3] the target is unchanged. Nature of the experiment: SPR; FGF23 C-tail peptide immobilized, increasing concentrations of FGFR1c ligand-binding domain.
Description: as §1, §2

B1: N-terminally hexahistidine-tagged, mature form of human FGF23 (Y25 to I251), R176Q/R179Q (ligand)
chain: YPNASPLLGSSWGGLIHLYTATARNSYHLQIHKNGHVDGAPHQTIYSALMIRSEDAGFVVITGVMSRRYLCMDFRGNIFGSHYFDPENCRFQHQTLENGYDVYHSPQYHFLVSLGRAKRAFLPGMNPPPYSQFLSRRNEIPLIHFNTPIPRQHTQSAEDDSERDPLNVLKPRARMTPAPASCSQELPSAEDNSPMASDPLGVVRGGRVNTHAGGTGPEGCRPFAKFI
notes: also called native FGF23; wild-type FGF23; not shown: N-terminal hexahistidine tag
On to B1, for which the binding result in experiment [1] is given as “binds”.

B2: N-terminally hexahistidine-tagged, mature form of human FGF21 (H29 to S209) (ligand)
chain: HPIPDSSPLLQFGGQVRQRYLYTDDAQQTEAHLEIREDGTVGGAADQSPESLLQLKALKPGVIQILGVKTSRFLCQRPDGALYGSLHFDPEACSFRELLLEDGYNVYQSEAHGLPLHLPGNKSPHRDPAPRGPARFLPLPGLPPALPEPPGILAPQPPDVGSSDPLSMVGPSQGRSPSYAS
notes: also called native FGF21; not shown: N-terminal hexahistidine tag
As to B2, the binding result in experiment [2] is reported as “binds”.

B3: N-terminally hexahistidine-tagged C-terminal tail peptide of FGF23 (S180 to I251) (peptide)
peptide: SAEDDSERDPLNVLKPRARMTPAPASCSQELPSAEDNSPMASDPLGVVRGGRVNTHAGGTGPEGCRPFAKFI
notes: also called FGF23^C-tail; not shown: N-terminal hexahistidine tag
Turning to B3, in experiment [3], the binding result is “no binding”.

Values taken from patent US9926355 (NEW YORK UNIVERSITY, dated 2018).
